Laboratory results taken from patent US20040191821.

Target: MuA transposase (residues 77-663) (Bacteriophage Mu) (UniProt P07636)
Conditions: 91/92 nt products; mismatch at center of 5 bp target; 10 mM MgCl2, 30 C; scale: % of strand transfer products at mismatch

Sequence of MuA transposase (residues 77-663) (Bacteriophage Mu) (P07636 77-663): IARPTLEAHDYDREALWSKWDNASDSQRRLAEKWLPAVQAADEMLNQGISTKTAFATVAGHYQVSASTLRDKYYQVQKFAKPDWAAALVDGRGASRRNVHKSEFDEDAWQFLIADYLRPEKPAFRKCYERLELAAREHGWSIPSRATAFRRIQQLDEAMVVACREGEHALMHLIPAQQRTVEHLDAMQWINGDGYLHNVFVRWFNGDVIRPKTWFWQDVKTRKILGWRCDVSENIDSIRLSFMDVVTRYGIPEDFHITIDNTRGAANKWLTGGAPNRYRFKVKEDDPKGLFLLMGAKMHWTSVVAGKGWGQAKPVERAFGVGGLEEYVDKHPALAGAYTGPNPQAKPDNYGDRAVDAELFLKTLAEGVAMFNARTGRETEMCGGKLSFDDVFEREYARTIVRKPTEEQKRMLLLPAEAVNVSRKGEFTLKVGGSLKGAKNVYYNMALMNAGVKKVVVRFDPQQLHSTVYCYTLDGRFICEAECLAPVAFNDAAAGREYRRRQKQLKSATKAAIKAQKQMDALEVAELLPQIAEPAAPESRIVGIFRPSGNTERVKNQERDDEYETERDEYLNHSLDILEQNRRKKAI

CGTTCATTAGCACAATCACAGAAGACTAGAATACAACCGCACATAAGATCAGAAGTTAACTAGCACTAGTACTTGC (double strand) [single mismatch target 76 bp]
activity: 90
